Assay results reported in IntAct's records for PubMed 25416944.

Target: vhl_human VHL (UniProt P40337)
Sequence (P40337 whole entry, looked up): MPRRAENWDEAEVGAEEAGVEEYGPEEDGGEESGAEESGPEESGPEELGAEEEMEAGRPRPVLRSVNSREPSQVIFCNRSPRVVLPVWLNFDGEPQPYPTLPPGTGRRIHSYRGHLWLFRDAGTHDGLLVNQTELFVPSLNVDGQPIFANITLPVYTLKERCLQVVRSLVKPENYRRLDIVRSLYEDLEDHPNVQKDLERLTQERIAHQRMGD

T-complex protein 1 subunit alpha (Saccharomyces cerevisiae), P12612 R319A, sequence (P12612 whole entry R319A, one chain of several): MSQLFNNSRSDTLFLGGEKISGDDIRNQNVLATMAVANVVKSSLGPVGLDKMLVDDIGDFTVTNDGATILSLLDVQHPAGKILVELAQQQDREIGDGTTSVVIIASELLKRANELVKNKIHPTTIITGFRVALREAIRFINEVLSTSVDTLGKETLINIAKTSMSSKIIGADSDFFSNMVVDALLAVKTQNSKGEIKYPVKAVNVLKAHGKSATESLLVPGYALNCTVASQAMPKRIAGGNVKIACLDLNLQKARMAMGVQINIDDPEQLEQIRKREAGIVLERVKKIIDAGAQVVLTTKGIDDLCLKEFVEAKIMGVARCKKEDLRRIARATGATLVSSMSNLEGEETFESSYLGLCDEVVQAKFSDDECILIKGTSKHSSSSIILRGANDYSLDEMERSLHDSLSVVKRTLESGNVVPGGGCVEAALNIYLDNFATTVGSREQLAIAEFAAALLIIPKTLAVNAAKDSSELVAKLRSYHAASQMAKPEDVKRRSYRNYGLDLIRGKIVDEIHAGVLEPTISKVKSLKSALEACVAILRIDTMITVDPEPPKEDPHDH
T-complex protein 1 subunit alpha (Saccharomyces cerevisiae), P12612 L305A, sequence (P12612 whole entry L305A, one chain of several): as the sequence (P12612 whole entry R319A, one chain of several) above, with L305A, A319R counted along it
T-complex protein 1 subunit alpha (Saccharomyces cerevisiae), P12612 V311A, sequence (P12612 whole entry V311A, one chain of several): as the sequence (P12612 whole entry R319A, one chain of several) above, with V311A, A319R counted along it
T-complex protein 1 subunit alpha (Saccharomyces cerevisiae), P12612 L326A, sequence (P12612 whole entry L326A, one chain of several): as the sequence (P12612 whole entry R319A, one chain of several) above, with A319R, L326A counted along it

Effect of a mutation on the interaction, decreasing interaction strength:
T-complex protein 1 subunit alpha (Saccharomyces cerevisiae), P12612 L305A
T-complex protein 1 subunit alpha (Saccharomyces cerevisiae), P12612 R319A
T-complex protein 1 subunit alpha (Saccharomyces cerevisiae), P12612 V311A
T-complex protein 1 subunit alpha (Saccharomyces cerevisiae), P12612 L326A
